{"source": "paper PMC7955952", "substrate": "Nc1ncnc2c1ncn2[C@@H]1O[C@H](COP(=O)(O)OP(=O)(O)OP(=O)(O)O)[C@@H](O)[C@H]1O", "test": "Michaelis–Menten saturation kinetics", "format": "biochemical, Homo sapiens", "conditions": "Mn2+ ATP-binding pocket"}
{"protein": "Focal adhesion kinase (FAK) (Homo sapiens) (protein) ETDDYAEIIDEEDTYTMPSTRDYEIQRERIELGRCIGEGQFGDVHQGIYMSPENPALAVAIKTCKNCTSDSVREKFLQEALTMRQFDHPHIVKLIGVITENPVWIIMELCTLGELRSFLQVRKYSLDLASLILYAYQLSTALAYLESKRFVHRDIAARNVLVSSNDCVKLGDFGLSRYMEDSTYYKASKGKLPIKWMAPESINFRRFTSASDVWMFGVCMWEILMHGVKPFQGVKNNDVIGRIENGERLPMPPNCPPTLYSLMTKCWAYDPSRRPRFTELKAQLSTILEEEKAQQEERMRMESRRQ", "values": [{"measurement": "Km", "result": "6.4 ± 1.2", "unit": "µM"}]}
